Laboratory results: patent publication US20250043017A1 (Regeneron, published 2025)

Assays:
human 4-1BB on cells [1] = target: T1, human 4-1BB on cells (human, UniProt Q07011 24-255); experiment: cell-based or functional assay
human 4-1BB on cells [2] = target: T1, human 4-1BB on cells; experiment: cell-based or functional assay; remark: listed apart in the source
human 4-1BB on cells [3] = target: T1, human 4-1BB on cells; experiment: flow cytometry, Jurkat/NFkB-Luc/h41BB cells
Experimental: Binding was detected by using a labeled secondary antibody and measuring fluorescence on a flow cytometer.
Assay set up: OVCAR-3+/−PD-L1 cells were lifted with trypsin, washed and resuspended in stain buffer (2% FBS in PBS). OVCAR-3 and Jurkat/NFkB-Luc/h41BB cells were counted and added to wells at 200,000 cells/well. Cells, in wells of 96-well round bottom plates, were pelleted by centrifugation and resuspended in 150 ul stain buffer (PBS containing 2% FBS). Plates were once again centrifuged and subsequently 100 ul of stain buffer alone or stain buffer containing antibody, titrated from 200 nM to 12 pM in a 9-point 1:4 dose titration were added to cells. Cells and antibodies were incubated for 30 min on ice and then washed in stain buffer. Cells were resuspended in 2 μg/ml allophycocyanin (APC) conjugated goat-anti human secondary antibody. A secondary antibody alone control was included. Cells and secondary were incubated for 30 min on ice and then washed in stain buffer. After a subsequent wash with PBS (containing no FBS), cells were resuspended in viability dye (reconstituted in DMSO according to the manufacturer's protocol and diluted 1:1000 in PBS) and incubated for 20 min on ice. They were then washed with stain buffer and resuspended in 2% PFA for 30 min at 4 C. After washing they were filtered and analyzed by flow cytometry. EC₅₀ values of the antibodies were determined from a 4 parameter logistic equation over a 9-point dose response curve (including secondary only control) using GraphPad Prism software.

[4] = target: T2, human 4-1BB expressed with a C-terminal myc-myc-hexahistidine tag (h4-1BB.mmH) (human); experiment: blocking ELISA, 0.25 nM h4-1BB-mmh binding to coated 6His-Flag-h4-1BBL
T2 construct: also called hCD137 (4-1BB) mmH
T2 sequence (chain, as listed by the source limits assumed): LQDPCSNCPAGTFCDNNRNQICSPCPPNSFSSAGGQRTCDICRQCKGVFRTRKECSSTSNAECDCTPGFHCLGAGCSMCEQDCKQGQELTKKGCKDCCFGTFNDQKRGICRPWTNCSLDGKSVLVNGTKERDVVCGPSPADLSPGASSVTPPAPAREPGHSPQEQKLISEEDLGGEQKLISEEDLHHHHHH
Experimental: The 4-1BB blocking assay was performed similarly to the PD-L1 blocking assay. 6His-Flag-h4-1BBL protein ([…] in PBS) was coated onto a 96-well microtiter plate overnight at 4 °C. […] The plates were developed using TMB substrate solution (BD Biosciences) and the absorbance at 450 nm was measured on a SpectraMax I3x plate reader.
Binding data were analyzed using a sigmoidal (four-parameter logistic) dose-response model with GraphPad Prism™ software. […] The percent blocking of tested antibodies at the highest tested concentration of 100 nM was calculated based on the formula shown below: […]

[5] = target: T2, human 4-1BB expressed with a C-terminal …; experiment: SPR Biacore, 25 C, antibody captured via anti-hFc, h4-1BB.mmH as analyte
Experimental: The CM5 Biacore sensor surface was derivatized by amine coupling with a monoclonal mouse anti-human Fc antibody. All Biacore binding studies were performed in a buffer composed of 0.01M HEPES pH 7.4, 0.15M NaCl, 3 mM EDTA, 0.05% v/v Surfactant P20 (HBS-EP running buffer). […] Antibody-reagent association was monitored for 5 minutes while dissociation in HBS-EP running buffer was monitored for 10 minutes. At the end of each cycle, the antibody capture surface was regenerated using a 10 sec injection of 20 mM phosphoric acid. All binding kinetics experiments were performed at 25° C.
Data analysis: The specific SPR-Biacore sensorgrams were obtained by a double referencing procedure. The double referencing was performed by first subtracting the signal of each injection over a reference surface (anti-hFc or anti-mFc) from the signal over the experimental surface (anti-hFc-captured anti-PD-L1×4-1BB antibodies) thereby removing contributions from refractive index changes. In addition, running buffer injections were performed to allow subtraction of the signal changes resulting from the dissociation of captured antibodies or antigens from the coupled anti-hFc or anti-mFc surface. Kinetic association (kₐ) and dissociation (kd) rate constants were determined by fitting the real-time sensorgrams to a 1:1 binding model using Scrubber v2.0c curve fitting software. Binding dissociation equilibrium constants (KD) and dissociative half-lives (t½) were calculated from the kinetic rate constants as: […]

T1 sequence (Q07011 24-255): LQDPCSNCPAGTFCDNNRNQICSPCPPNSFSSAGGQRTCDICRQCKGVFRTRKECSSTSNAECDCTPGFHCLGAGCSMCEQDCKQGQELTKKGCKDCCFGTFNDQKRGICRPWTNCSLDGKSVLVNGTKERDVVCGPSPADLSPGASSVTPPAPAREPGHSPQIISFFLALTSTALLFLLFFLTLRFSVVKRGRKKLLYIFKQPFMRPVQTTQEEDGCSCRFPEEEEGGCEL

NFkB-luciferase MAX (RLU), Jurkat/NFkB-Luc/h41BB + HEK293/hCD20/hPSMA (human 4-1BB on cells [1])	NFkB-luciferase MAX (RLU), Jurkat/NFkB-Luc/h41BB + HEK293/hCD20/hPSMA/hPD-L1 (human 4-1BB on cells [1])	IL2 release MAX, human CD3+ T cells + HEK293/hCD20/hPSMA + CD20xCD3 (human 4-1BB on cells [2])	IL2 release MAX, human CD3+ T cells + HEK293/hCD20/hPSMA, no CD20xCD3 (human 4-1BB on cells [2])	IL2 release MAX, human CD3+ T cells + HEK293/hCD20/hPSMA/hPD-L1 + CD20xCD3 (human 4-1BB on cells [2])	IL2 release MAX, human CD3+ T cells + HEK293/hCD20/hPSMA/hPD-L1, no CD20xCD3 (human 4-1BB on cells [2])	EC50 (human 4-1BB on cells [3])	Fold change (max MFI over secondary antibody alone) (human 4-1BB on cells [3])	Max [gMFI] (human 4-1BB on cells [3])	% Blocking at 100 nM mAb [4]	270 nM h4-1BB-mmH Bind (RU) [5]	Kd [5]	koff [5]	kon [5]	t½ [5]	NFkB-luciferase EC50, Jurkat/NFkB-Luc/h41BB + HEK293/hCD20/hPSMA (human 4-1BB on cells [1])	IC50 [4]	NFkB-luciferase EC50, Jurkat/NFkB-Luc/h41BB + HEK293/hCD20/hPSMA/hPD-L1 (human 4-1BB on cells [1])	IL2 release EC50, human CD3+ T cells + HEK293/hCD20/hPSMA/hPD-L1 + CD20xCD3 (human 4-1BB on cells [2])	Binder
18500 RLU	18500 RLU	11.3 pg/mL	2.5 pg/mL	10.3 pg/mL	2.5 pg/mL														mAb9373 (antibody, V domains shown) VH: QVQLVQSGTEVKKPGASVKVSCKASGYTFTAYYMHWVRQAPGQGLDWMGWISPNSGFTNYAQKFQGRVTMTRDTSINTFYMELSGLRSDDTAVYYCAREGSTHHNSFDPWGQGTLVTVSS VL: not shown
34300 RLU	29800 RLU	9.6 pg/mL	1 pg/mL	7.8 pg/mL	1 pg/mL		44.7 fold	100000 gMFI	61%	35.1 RU	170 nM	0.0902 s⁻¹	530000 M⁻¹ s⁻¹	6 s	14.8 nM				mAb25894 (antibody, V domains shown, bivalent parental anti-4-1BB antibody of REGN6188; also called 25894P2; parental bivalent 4-1BB antibody) VH: EVQLVESGGGLVQPGGSLRLSCVASGFTFSSYEMNWVRQAPGKGLEWVSYISNSGTTIYYAGSVKGRFTISRDNAKKSLYLHMNSLRAEDTAVYYCAREGTIFGTVHYYFALDVWGQGTTVTVSS VL: not shown
35900 RLU	562000 RLU	7.2 pg/mL	5.1 pg/mL	45.8 pg/mL	5.1 pg/mL		22.9 fold	52000 gMFI	33%	25.4 RU	128 nM	0.0948 s⁻¹	742000 M⁻¹ s⁻¹	6 s			0.558 nM	0.926 nM	REGN6188 (bispecific antibody, human IgG4 S228P, kappa, common light chain 1-39; also called R6188; PD-L1x4-1BB REGN6188) heavy 1: EVQLVESGGGLVQPGRSLRLSCAASGFTFDDYALHWVRQAPGKGLEWVSGISWTGGTIDYADSVKGRFTISRDNAKNSLYLQMSSLRTEDTAIYYCTRDIRGNWKYGGWFDPWGQGTLVTVSSASTKGPSVFPLAPCSRSTSESTAALGCLVKDYFPEPVTVSWNSGALTSGVHTFPAVLQSSGLYSLSSVVTVPSSSLGTKTYTCNVDHKPSNTKVDKRVESKYGPPCPPCPAPPVAGPSVFLFPPKPKDTLMISRTPEVTCVVVDVSQEDPEVQFNWYVDGVEVHNAKTKPREEQFNSTYRVVSVLTVLHQDWLNGKEYKCKVSNKGLPSSIEKTISKAKGQPREPQVYTLPPSQEEMTKNQVSLTCLVKGFYPSDIAVEWESNGQPENNYKTTPPVLDSDGSFFLYSRLTVDKSRWQEGNVFSCSVMHEALHNHYTQKSLSLSLGK heavy 2: EVQLVESGGGLVQPGGSLRLSCVASGFTFSSYEMNWVRQAPGKGLEWVSYISNSGTTIYYAGSVKGRFTISRDNAKKSLYLHMNSLRAEDTAVYYCAREGTIFGTVHYYFALDVWGQGTTVTVSSASTKGPSVFPLAPCSRSTSESTAALGCLVKDYFPEPVTVSWNSGALTSGVHTFPAVLQSSGLYSLSSVVTVPSSSLGTKTYTCNVDHKPSNTKVDKRVESKYGPPCPPCPAPPVAGPSVFLFPPKPKDTLMISRTPEVTCVVVDVSQEDPEVQFNWYVDGVEVHNAKTKPREEQFNSTYRVVSVLTVLHQDWLNGKEYKCKVSNKGLPSSIEKTISKAKGQPREPQVYTLPPSQEEMTKNQVSLTCLVKGFYPSDIAVEWESNGQPENNYKTTPPVLDSDGSFFLYSRLTVDKSRWQEGNVFSCSVMHEALHNRFTQKSLSLSPGK light: not shown

More lines, now with the values behind:

Binder	NFkB-luciferase MAX (RLU), Jurkat/NFkB-Luc/h41BB + HEK293/hCD20/hPSMA (human 4-1BB on cells [1])	NFkB-luciferase MAX (RLU), Jurkat/NFkB-Luc/h41BB + HEK293/hCD20/hPSMA/hPD-L1 (human 4-1BB on cells [1])	IL2 release MAX, human CD3+ T cells + HEK293/hCD20/hPSMA + CD20xCD3 (human 4-1BB on cells [2])	IL2 release MAX, human CD3+ T cells + HEK293/hCD20/hPSMA, no CD20xCD3 (human 4-1BB on cells [2])	IL2 release MAX, human CD3+ T cells + HEK293/hCD20/hPSMA/hPD-L1 + CD20xCD3 (human 4-1BB on cells [2])	IL2 release MAX, human CD3+ T cells + HEK293/hCD20/hPSMA/hPD-L1, no CD20xCD3 (human 4-1BB on cells [2])	EC50 (human 4-1BB on cells [3])	Fold change (max MFI over secondary antibody alone) (human 4-1BB on cells [3])	Max [gMFI] (human 4-1BB on cells [3])	% Blocking at 100 nM mAb [4]	270 nM h4-1BB-mmH Bind (RU) [5]	Kd [5]	koff [5]	kon [5]	t½ [5]	NFkB-luciferase EC50, Jurkat/NFkB-Luc/h41BB + HEK293/hCD20/hPSMA (human 4-1BB on cells [1])	IC50 [4]	NFkB-luciferase EC50, Jurkat/NFkB-Luc/h41BB + HEK293/hCD20/hPSMA/hPD-L1 (human 4-1BB on cells [1])	IL2 release EC50, human CD3+ T cells + HEK293/hCD20/hPSMA/hPD-L1 + CD20xCD3 (human 4-1BB on cells [2])
mAb25907 (antibody, V domains shown, bivalent parental anti-4-1BB antibody of REGN6190; also called 25907P2) VH: EVQLVESGGGLVQPGGSLRLSCEASGFTFSSYEMNWVRQAPGKGLEWISHISSSGSSIYYADSVQGRFTISRDKAKNSLYLQMNSLRAEDTAVYYCTREGFEYGSSSGLKYYYYGLDVWGQGTTVTVSS VL: not shown	18500 RLU	18100 RLU	9.3 pg/mL	1.6 pg/mL	4.6 pg/mL	1.6 pg/mL	0.00508 nM	60.5 fold	140000 gMFI	87%	67.5 RU	34.2 nM	0.0196 s⁻¹	572000 M⁻¹ s⁻¹	36 s				
mAb25921 (antibody, V domains shown, bivalent parental anti-4-1BB antibody of REGN6191; also called 25921P2; a-4-1BB) VH: QVQLVQSGAEVKKPGASVKVSCKASAYTFTSYGFSWVRQAPGQGLEWMGWISTSNGYTNYAQKIQDRVTMTTDTSTSTAYMELRSLRSDDTAVYYCASLSNWVSFFDYWGQGTLVTVSS VL: not shown	18000 RLU	18000 RLU	10 pg/mL	1 pg/mL	5.8 pg/mL	1 pg/mL	0.287 nM	76.9 fold	170000 gMFI	94%							0.75 nM		
mAb25898 (antibody, V domains shown, bivalent parental anti-4-1BB antibody of REGN6189; also called 25898P2; parental bivalent 4-1BB antibody) VH: QVQLVESGGDVVQPGRSLRLSCTASGFTFSSFGMHWVRQAPGKGLEWVTFLSYDGSYKYYADSVKGRFTISRDNSKNTLYLQMNSLRAEDTAIFYCARDWLDYWGQGTLVTVSS VL: not shown	19000 RLU	19000 RLU	8.4 pg/mL	3.3 pg/mL	5.1 pg/mL	3.3 pg/mL	0.0406 nM	53.8 fold	120000 gMFI	70%	63.8 RU	94.5 nM	0.0282 s⁻¹	298000 M⁻¹ s⁻¹	24 s				
